In the assay the target is microtubules (MTs) assembled with taxol in M-phase Xenopus egg extract (Xenopus laevis (endogenous in egg extract)). Kind of assay: co-sedimentation.

For “GFP-xINCENP 7A (from UniProt O13024 1-873) (natural protein)”, the fold increase in MT binding (against xINCENP) stood at 2 fold.

These data come from paper PMC5379950.
